Experimental data: patent US20250136720A1 (Boehringer Ingelheim, published 2025)
Residue numbers refer to the chain shown, from its start. In names and notes the source's numbering stands.

Assays:
[1] = target: T1, Human CD137 on Jurkat cells (human, UniProt Q07011 24-255); experiment: cell-based or functional assay; set-up: IC90; Jurkat-CD137 NFkB-luciferase, HT1080-FAP co-culture / EC90; Jurkat-CD137 NFkB-luciferase, HT1080-FAP co-culture: unit not given beside the values
[2] = target: T1, Human CD137 on Jurkat cells; experiment: cell-based or functional assay
[3] = target: T1, Human CD137 on Jurkat cells; experiment: flow cytometry, Jurkat cells;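 note: binding of antibody-containing supernatants to NF-kB-Luc2/4-1BB Jurkat cells, detected by flow cytometry with a PE-labelled anti-human IgG-Fc secondary antibody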

B1: CD137 #8 (A49.V43) + FAP #2 (A11 VK3/VH3) (bispecific antibody, human IgG1, kappa, L234A L235A)
heavy: not shown
light: EIVMTQSPLSLPVTPGEPASISCRSSQSLLYSNGYNHLDWYLQKPGQSPQLLIYLGSNRASGVPDRFSGSGSGTDFTLKISRVEAEDVGVYYCMQALQTPPTFGQGTKLEIKRTVAAPSVFIFPPSDEQLKSGTASVVCLLNNFYPREAKVQWKVDNALQSGNSQESVTEQDSKDSTYSLSSTLTLSKADYEKHKVYACEVTHQGLSSPVTKSFNRGEC
Q: How did the “EC90; Jurkat-CD137 NFkB-luciferase, HT1080-FAP co-culture” value [1] turn out when B1 was run?
A: The value was 5.04.

Q: What about the “IC90; Jurkat-CD137 NFkB-luciferase, HT1080-FAP co-culture” value [1] of the same binder?
A: The value was 467.

Q: And the “Total AUC; Jurkat-CD137 NFkB-luciferase, HT1080-FAP co-culture” value (“Total AUC; Jurkat-CD137 NFkB-luciferase” below) [1]?
A: The value was 2.5e+07.

Q: And the “Average EC50; Jurkat-CD137 NFkB-luciferase, HT1080-FAP co-culture” value (“Average EC50” for short) [2]?
A: Its value is 0.327 nM.

Q: And the “Average EC90; Jurkat-CD137 NFkB-luciferase, HT1080-FAP co-culture” value (“Average EC90” for short) [2]?
A: Its value is 2.59 nM.

Q: And the “Average IC50; Jurkat-CD137 NFkB-luciferase, HT1080-FAP co-culture” value (“Average IC50” for short) [2]?
A: Its value is 958 nM.

Q: And the “Average IC90; Jurkat-CD137 NFkB-luciferase, HT1080-FAP co-culture” value (“Average IC90” for short) [2]?
A: The value was 210 nM.

Q: And the “Ratio IC50/EC50; Jurkat-CD137 NFkB-luciferase, HT1080-FAP co-culture” value (“Ratio IC50/EC50” for short) [2]?
A: The value was 2930.

Q: And the “Ratio IC90/EC90; Jurkat-CD137 NFkB-luciferase, HT1080-FAP co-culture” value (“Ratio IC90/EC90” below) [2]?
A: The value was 81.2.

B2: CD137 #8 (A49.V43) + FAP #3 (A11 VK7/VH1) (bispecific antibody, human IgG1, kappa, L234A L235A)
heavy: not shown
light: B1 light
Q: For B2, which “EC90; Jurkat-CD137 NFkB-luciferase, HT1080-FAP co-culture” value [1] is on record?
A: The value was 0.96.

Q: What about the “IC90; Jurkat-CD137 NFkB-luciferase, HT1080-FAP co-culture” value [1] of the same binder?
A: Its value is 60.8.

Q: And the “Total AUC; Jurkat-CD137 NFkB-luciferase” value [1]?
A: Its value is 3.15e+07.

Q: And the “Average EC50” value [2]?
A: Its value is 0.17 nM.

Q: And the “Average EC90” value [2]?
A: Its value is 1.01 nM.

Q: What about the “Average IC50” value [2] of the same binder?
A: The value was 362 nM.

Q: And the “Average IC90” value [2]?
A: The value was 58.3 nM.

Q: What about the “Ratio IC50/EC50” value [2] of the same binder?
A: Its value is 2130.

Q: And the “Ratio IC90/EC90” value [2]?
A: Its value is 57.6.

B3: CD137 #A4 (antibody, human IgG1, V domains shown)
VH: DVQLQESGPGLVKPSQSLSLTCTVTGYSITSDYVWNWIRQFPGNKLEWMGYISYSGGTRYNPSLKSRISITRDTSENQFFLQLDSVTTEDTATFYCARSGNWDWYFDAWGTGTTVTVSS
VL: DIQMTQTTSSLSASLGDRVTISCRPSQDISNYLDWYQQKPDGTVKLLIYSTSRLPSGVPSRFSGSGSGTDYSLTISNMEQEDIATYFCQQGNTFPPTFGGGTKLEIK
notes: human IgG1 KO (L234A/L235A)/kappa chimeric IgG
Q: Does B3 bind [3]?
A: Result: binds

B4: CD137 #A30 (antibody, human IgG1, V domains shown)
VH: QVQLQQPGTEFVKPGASVKLSCKASDYTFTSHWMHWVKQRPGQGLEWIGEIDPSDSYTNYIQKFKGKATLTVDKSSSTAYMQLSSLTSEDSAVYYCARGDYYGTRYFDVWGAGTTVIVSS
VL: DIVMTQSPSSLSVSAGEKVTMSCKSGQNLFNSGNQKNYLAWYQQKPGQPPRLLIYGASTRESGVPDRFTGSGSGTDFTLTISSVQAEDLAVYYCQNDQSYPPTFGAGTKLELK
notes: as for B3
Q: Does B4 bind [3]?
A: Result: binds

B5: CD137 #A1 (antibody, human IgG1, V domains shown)
VH: QVQLVQSGAEVKKPGASVKVSCKASGYTLTNYPMHWVRQAPGQRPEWMGWSNAGNGNTKYSQEFQDRVTITRDTSASTAYMELSSLRSEDMAVYYCTREGVTGGFDIWGQGTMVTVSS
VL: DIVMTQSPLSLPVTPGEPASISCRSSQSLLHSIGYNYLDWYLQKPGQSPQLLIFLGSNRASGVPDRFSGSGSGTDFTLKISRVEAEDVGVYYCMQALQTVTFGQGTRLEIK
notes: as for B3
Q: Does B5 bind [3]?
A: Result: binds

B6: CD137 #B12 (antibody, human IgG1, V domains shown)
VH: B5 VH with L29F, N31T, P45L, N55I, V68I, T71S, A79V, T97A, T102A
VL: DIVMTQSPLSLPVTPGEPASISCRSSQSLLHSNGYNYLNWYLQKPGQSPQLLIYLGSIRASGVPDRFSGSESGTDFTLKISRVEAEDVGVYYCMQPLQIPYTFGQGTKLEIK
notes: as for B3
Q: Does B6 bind [3]?
A: Result: binds

B7: CD137 #A44 (antibody, V domains shown)
VH: B5 VH with L29F, M34I, P45L, Q62P, A79V, A92S, T97A, G104A
VL: not shown
notes: as for B3
Q: Does B7 bind [3]?
A: Result: binds

B8: CD137 #A2 (antibody, human IgG1, V domains shown)
VH: QVQLVQSGADVKKPGASVRVSCKASGYTFTSYPIHWVRQAPGHRLEWMGWSNAGIGNAKYSQEFQGRVTITRDTSASTAYMDLSSLTSEDLAVYYCAREGVAGAFDIWGQGTMVTVSA
VL: B6 VL with S28N, N39D, Q43H, V90I, I111L
notes: as for B3
Q: Does B8 bind [3]?
A: Result: binds

B9: CD137 #B10 (antibody, human IgG1, V domains shown)
VH: QVQLVQSGAEVKKPGASVKVSCKASGYTFTNYPMHWVRQAPGQRLEWMGWSNAGSGNTKYSQDFQGRVSITRDTSASTAYMELSSLKSEDMAIYYCAREGVAGAFDIWGQGTVVTVSS
VL: B6 VL with S28R, Y35F, N39G, I58H, E71G
notes: as for B3
Q: Does B9 bind [3]?
A: Result: binds

B10: CD137 #A45 (antibody, human IgG1, V domains shown)
VH: B9 VH with T28I, S55I, S69T, S77N, A79S, K87R, I93V, A102T, I107Y, V113L
VL: B6 VL with Y35F, N39D, Y54F, E86D, V90I
notes: as for B3
Q: Does B10 bind [3]?
A: Result: binds

B11: CD137 #2 (B21.V16) + FAP #2 (A11 VK3/VH3) (bispecific antibody, human IgG1, kappa, L234A L235A)
heavy: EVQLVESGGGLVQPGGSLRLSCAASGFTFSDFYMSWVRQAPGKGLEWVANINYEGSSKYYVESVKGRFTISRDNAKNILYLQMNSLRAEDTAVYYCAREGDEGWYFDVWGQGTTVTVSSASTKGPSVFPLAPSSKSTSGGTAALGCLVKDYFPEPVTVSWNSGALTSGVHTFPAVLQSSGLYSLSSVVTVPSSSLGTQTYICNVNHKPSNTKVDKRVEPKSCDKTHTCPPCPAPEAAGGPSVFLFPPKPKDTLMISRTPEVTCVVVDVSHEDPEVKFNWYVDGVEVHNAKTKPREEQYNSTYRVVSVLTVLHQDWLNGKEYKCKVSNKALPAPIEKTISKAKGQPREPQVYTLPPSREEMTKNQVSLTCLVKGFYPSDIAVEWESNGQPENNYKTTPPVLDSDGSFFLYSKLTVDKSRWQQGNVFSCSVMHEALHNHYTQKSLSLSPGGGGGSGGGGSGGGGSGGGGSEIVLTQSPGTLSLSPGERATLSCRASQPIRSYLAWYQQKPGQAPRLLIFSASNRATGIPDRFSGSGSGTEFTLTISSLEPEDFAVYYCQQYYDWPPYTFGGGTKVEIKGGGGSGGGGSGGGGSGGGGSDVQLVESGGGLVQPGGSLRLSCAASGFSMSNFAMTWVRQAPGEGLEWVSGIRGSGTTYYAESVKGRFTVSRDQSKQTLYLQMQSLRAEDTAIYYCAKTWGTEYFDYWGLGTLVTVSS
light: DIQMTQSPSSLSASVGDRVTITCKASQDISSAVAWYQQKPGKAPKLLIYSASSRYTGVPSRFSGSGSGTDFTLTISSLQPEDFAVYYCQQHYSNPWTFGQGTKLEIKRTVAAPSVFIFPPSDEQLKSGTASVVCLLNNFYPREAKVQWKVDNALQSGNSQESVTEQDSKDSTYSLSSTLTLSKADYEKHKVYACEVTHQGLSSPVTKSFNRGEC
Q: Which “EC90; Jurkat-CD137 NFkB-luciferase, HT1080-FAP co-culture” value [1] does the source give for B11 here?
A: The value was 3.14.

Q: And the “IC90; Jurkat-CD137 NFkB-luciferase, HT1080-FAP co-culture” value [1]?
A: The value was 127.

Q: What about the “Total AUC; Jurkat-CD137 NFkB-luciferase” value [1] of the same binder?
A: The value was 3.3e+06.

Q: And the “Average EC50” value [2]?
A: The value was 0.165 nM.

Q: And the “Average EC90” value [2]?
A: The value was 1.47 nM.

Q: And the “Average IC50” value [2]?
A: The value was 847 nM.

Q: What about the “Average IC90” value [2] of the same binder?
A: The value was 87.8 nM.

Q: What about the “Ratio IC50/EC50” value [2] of the same binder?
A: The value was 5130.

Q: And the “Ratio IC90/EC90” value [2]?
A: The value was 59.7.

B12: CD137 #2 (B21.V16) + FAP #5 (C3 VK1/VH4) (bispecific antibody, human IgG1, kappa, L234A L235A)
heavy: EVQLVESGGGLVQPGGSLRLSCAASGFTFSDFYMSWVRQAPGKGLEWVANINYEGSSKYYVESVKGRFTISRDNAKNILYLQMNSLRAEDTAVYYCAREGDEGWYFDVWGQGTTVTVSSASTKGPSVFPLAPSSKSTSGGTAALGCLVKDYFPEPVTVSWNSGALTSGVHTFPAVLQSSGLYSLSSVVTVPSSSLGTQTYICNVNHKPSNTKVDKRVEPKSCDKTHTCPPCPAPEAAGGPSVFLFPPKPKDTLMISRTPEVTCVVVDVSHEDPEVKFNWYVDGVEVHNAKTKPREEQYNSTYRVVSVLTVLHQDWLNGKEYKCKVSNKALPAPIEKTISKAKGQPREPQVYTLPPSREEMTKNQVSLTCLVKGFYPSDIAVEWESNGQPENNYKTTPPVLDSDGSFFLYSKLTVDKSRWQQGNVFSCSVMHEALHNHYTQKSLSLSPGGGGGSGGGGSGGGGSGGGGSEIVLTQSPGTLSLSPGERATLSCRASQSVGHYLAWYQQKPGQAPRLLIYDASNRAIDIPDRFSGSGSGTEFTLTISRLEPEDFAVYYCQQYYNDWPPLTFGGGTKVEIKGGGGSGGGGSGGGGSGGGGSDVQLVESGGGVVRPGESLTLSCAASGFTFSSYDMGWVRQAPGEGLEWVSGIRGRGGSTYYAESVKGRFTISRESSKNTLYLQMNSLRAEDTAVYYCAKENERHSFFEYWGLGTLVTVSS
light: B11 light
Q: Which results are given for B12?
A: EC90; Jurkat-CD137 NFkB-luciferase, HT1080-FAP co-culture [1]: 0.87; IC90; Jurkat-CD137 NFkB-luciferase, HT1080-FAP co-culture [1]: 74.3; Total AUC; Jurkat-CD137 NFkB-luciferase, HT1080-FAP co-culture [1]: 3.6e+06; Average EC50; Jurkat-CD137 NFkB-luciferase, HT1080-FAP co-culture [2]: 0.233 nM; Average EC90; Jurkat-CD137 NFkB-luciferase, HT1080-FAP co-culture [2]: 2.23 nM; Average IC50; Jurkat-CD137 NFkB-luciferase, HT1080-FAP co-culture [2]: 538 nM; Average IC90; Jurkat-CD137 NFkB-luciferase, HT1080-FAP co-culture [2]: 110 nM; Ratio IC50/EC50; Jurkat-CD137 NFkB-luciferase, HT1080-FAP co-culture [2]: 2300; Ratio IC90/EC90; Jurkat-CD137 NFkB-luciferase, HT1080-FAP co-culture [2]: 49.4

B13: CD137 #4 (B21.V25) + FAP #5 (C3 VK1/VH4) (bispecific antibody, human IgG1, kappa, L234A L235A)
heavy: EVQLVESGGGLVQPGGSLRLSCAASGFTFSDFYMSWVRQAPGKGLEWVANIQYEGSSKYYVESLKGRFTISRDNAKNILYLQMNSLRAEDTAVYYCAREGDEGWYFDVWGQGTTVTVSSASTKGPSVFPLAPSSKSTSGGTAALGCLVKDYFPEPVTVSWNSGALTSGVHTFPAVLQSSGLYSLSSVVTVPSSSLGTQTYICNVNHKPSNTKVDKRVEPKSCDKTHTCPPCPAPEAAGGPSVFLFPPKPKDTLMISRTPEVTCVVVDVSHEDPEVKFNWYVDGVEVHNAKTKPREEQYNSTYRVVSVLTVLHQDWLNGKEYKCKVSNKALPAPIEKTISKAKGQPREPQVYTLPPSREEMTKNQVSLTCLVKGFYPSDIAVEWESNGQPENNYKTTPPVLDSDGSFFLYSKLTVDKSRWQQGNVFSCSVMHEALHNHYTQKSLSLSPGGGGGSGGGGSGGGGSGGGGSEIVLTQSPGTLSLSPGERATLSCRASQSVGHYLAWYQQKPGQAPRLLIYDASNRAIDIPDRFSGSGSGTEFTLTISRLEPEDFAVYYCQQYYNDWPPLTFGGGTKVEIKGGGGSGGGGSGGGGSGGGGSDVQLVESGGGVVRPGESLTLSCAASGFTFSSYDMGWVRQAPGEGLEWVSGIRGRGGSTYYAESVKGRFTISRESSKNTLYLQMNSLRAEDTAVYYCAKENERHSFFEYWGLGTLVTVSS
light: B11 light with K24R, D28S, S31T, S50A, S53Y, R54L, T56S
Q: Which “EC90; Jurkat-CD137 NFkB-luciferase, HT1080-FAP co-culture” value [1] does the source give for B13 here?
A: Its value is 1.38.

Q: What about the “IC90; Jurkat-CD137 NFkB-luciferase, HT1080-FAP co-culture” value [1] of the same binder?
A: The value was 77.8.

Q: And the “Total AUC; Jurkat-CD137 NFkB-luciferase” value [1]?
A: Its value is 3e+06.

Q: And the “Average EC50” value [2]?
A: Its value is 0.175 nM.

Q: What about the “Average EC90” value [2] of the same binder?
A: The value was 1.25 nM.

Q: And the “Average IC50” value [2]?
A: Its value is 559 nM.

Q: And the “Average IC90” value [2]?
A: Its value is 98.6 nM.

Q: And the “Ratio IC50/EC50” value [2]?
A: Its value is 3190.

Q: And the “Ratio IC90/EC90” value [2]?
A: The value was 79.

B14: CD137 #A46 (antibody, human IgG1, V domains shown)
VH: QVQLAQSGAEVKKPGASVKVSCKASGYTFSSFPMHWVRQAPGQRLEWMGWSNAGIGNTKYSQEFQGRVTITRDTSASTAYMELSSLRSEDMAVYYCAREGLTGAFDYWGQGTLVTVSS
VL: B6 VL with N39G, Y41H, I58Y, E71G, Y101L, Q105G, L109V
notes: as for B3
Q: Does B14 bind [3]?
A: Result: binds

B15: CD137 #A57 (antibody, human IgG1, V domains shown)
VH: B14 VH with A5V, A24T, S30T, F32Y, I55N, I70L, Y80F
VL: not shown
notes: as for B3
Q: Does B15 bind [3]?
A: Result: binds

B16: CD137 #B9 (antibody, human IgG1, V domains shown)
VH: B14 VH with A5V, F29L, S30T, S31N, S51T, I55N, F64L, I70M, T78I, A92G
VL: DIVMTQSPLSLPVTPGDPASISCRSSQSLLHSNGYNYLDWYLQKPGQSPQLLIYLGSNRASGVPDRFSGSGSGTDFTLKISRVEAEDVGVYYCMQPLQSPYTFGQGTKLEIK
notes: as for B3
Q: Does B16 bind [3]?
A: Result: binds

B17: CD137 #A12 (antibody, human IgG1, V domains shown)
VH: QVQLKQSGPGLVQPSQSLSITCTVSGFSLTSHGVHWVRQSPGKGLEWLGVIWSGGYTDYNAAFISRLSISTDNSKSHIFFKMNSLQADDTAIYYCARNGASYYYAMDYWGQGTSVTVSS
VL: DIVMTQAAFSNPVTLGISASISCRSSKSLLHSNGITYLYWYLQKPGQSPQLLIYQMSNLASGVPDRFSSSGSGTDFTLRISRVEAEDVGVYYCAQNLELPLTFGAGTKLELK
notes: human IgG1 KO (L234A/L235A)/kappa chimeric IgG; also called CD137 #Al2
Q: Does B17 bind [3]?
A: Result: binds

B18: CD137 #A41 (antibody, human IgG1, V domains shown)
VH: QVQLQESGPGLVKPSETLSLNCTVSGGSISNYYWSWIRQPAGKGLEWIGRIYTSGNTNYNPSLKSRVTMSVDTSKNQFSLKLTSVTAADTAVYYCARDGNWNYADAFDIWGQGTMVTVSS
VL: DIQMTQSPSSVSASVGDRVTITCRASQGISSWLAWFQQIPGKAPKLLIYTASGLQSGVPSRFSGSGSGTDFTLTISSLQPEDFATYYCQQTNSFPFTFGPGTKVDIK
notes: as for B3
Q: Does B18 bind [3]?
A: Result: binds

B19: CD137 #B3 (antibody, human IgG1, V domains shown)
VH: DVQLVESGGDLVQPGGSRKLSCAASGFTFSSFGMHWVRQAPERGLEWVAYISSGSSTIYYADTVKGRFIISRDNPKNTLFLQMTSLRSEDTAMYYCARDWVDYWGQGTSVTVSS
VL: QIVLTQSPAIMSASPGEKVTITCSASSSVNYIHWFQQKPGTSPKLWIYSTSNLASGVPARFSGRGSGTSYSLTISRMEAEDAATYYCLQGSSYPWTFGGGTKLEIK
notes: as for B3
Q: Does B19 bind [3]?
A: Result: binds
